{"source": "patent US10293024", "about": "(dated 2019)", "key": {"[1]": {"target": "T1, MAP kinase p38α (OH-p38α, non-phosphorylated) (human)", "T1 sequence (chain, as listed by the source)": "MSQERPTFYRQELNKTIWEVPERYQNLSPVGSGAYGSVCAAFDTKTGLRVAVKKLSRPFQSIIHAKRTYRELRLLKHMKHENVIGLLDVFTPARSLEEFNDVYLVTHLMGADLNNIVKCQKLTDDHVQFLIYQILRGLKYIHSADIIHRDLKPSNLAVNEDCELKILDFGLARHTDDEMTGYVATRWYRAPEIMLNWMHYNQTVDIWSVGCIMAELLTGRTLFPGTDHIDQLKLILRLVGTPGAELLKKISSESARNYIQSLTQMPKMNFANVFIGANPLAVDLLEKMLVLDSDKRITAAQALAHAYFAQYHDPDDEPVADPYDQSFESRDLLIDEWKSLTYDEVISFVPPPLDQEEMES", "experiment": "SPR, inhibition in solution"}, "[2]": {"target": "6His-MAP kinase p38α (human)", "sequence (chain, as listed by the source)": "as above", "experiment": "other, NMR titration 298K"}, "[3]": {"target": "T1, MAP kinase p38α (OH-p38α, …)", "experiment": "other, biochemical kinase assay"}}, "data": [{"binder": "HKSRALLIFQKIMWLRRQ", "note": "[BB2702]", "values": [{"measurement": "Kd", "setting": "[1]", "value": 25, "unit": "nM"}, {"measurement": "Kd", "setting": "[2]", "value": "< 1000", "unit": "nM"}, {"measurement": "Ki", "setting": "[3]", "value": 7, "unit": "nM"}]}, {"binder": "RKPDLRVVIPPSS", "note": "[MEF2A peptide]", "values": [{"measurement": "Kd", "setting": "[2]", "value": "~250000", "unit": "nM"}]}]}
